According to publication PMC8346855 (Proceedings of the National Academy of Sciences of the …, 2021):

Legend:
Details in all cases: both partners purified
[1] = target: T1, thermostabilized turkey beta-1 adrenergic receptor (turkey); test: cross-linking + other: high-mass MALDI-MS; ligand-free (apo) GPCR, 5 µM, mixed with partner protein at various concentrations, 1 h at room temperature, BS(PEG)9 cross-linking, β-Gal as internal standard; 20 mM Hepes pH 7.5, 40 mM NaCl, 0.01% LMNG; Ka = 1/Kd
T1 construct: turkey beta-1 adrenergic receptor, thermostabilized, truncated at the C terminus and intracellular loop 3; the states are told apart by the assay; also called β1AR; apo-β1AR

[2] = target: T1, thermostabilized turkey beta-1 …; test: cross-linking + other: high-mass MALDI-MS; isoprenaline-bound β1AR (iso-β1AR), 5 µM, mixed with partner protein at various concentrations, 1 h at room temperature, BS(PEG)9 cross-linking, 0.6 µM β-Gal as internal standard; 20 mM Hepes pH 7.5, 40 mM NaCl, 0.01% LMNG; Ka = 1/Kd
[3] = target: T1, thermostabilized turkey beta-1 …; test: cross-linking + other: high-mass MALDI-MS; competition: Nb80 (0 to 13.3 µM) added to iso-β1AR (2.5 µM) and mGo (3.0 µM), 1 h at room temperature, BS(PEG)9 cross-linking, β-Gal as internal standard; read-out β1AR•mGo formation
[4] = target: T2, thermostabilized turkey beta-1 adrenergic receptor (Meleagris gallopavo (turkey), stabilised); test: cross-linking; Kd by titrating the partner protein against isoprenaline-bound β1AR; 20 mM Hepes pH 7.5, 40 mM NaCl, 0.01% lauryl maltose neopentyl glycol; BS(PEG)9, high-mass MALDI-MS, normalised to β-galactosidase
T2 construct: beta-1 adrenergic receptor, turkey, thermostabilized, truncated at the C terminus and intracellular loop 3; Not treated with kinases; Small-molecule ligand states are told apart by the assay; also called β1AR; apo-β1AR; source: purified

[5] = target: T2, thermostabilized turkey beta-1 …; test: cross-linking; competition: 2.5 μM β1AR, 3.0 μM mGo, increasing concentrations of Nb80; BS(PEG)9, high-mass MALDI-MS
[6] = target: T1, thermostabilized turkey beta-1 …; test: cross-linking + other: high-mass MALDI-MS; formation of β1AR•mGo with the titration of mGo, reading of EC50 (Graphpad); ligand state of β1AR not told for this curve

T1 sequence (chain, as listed by the source): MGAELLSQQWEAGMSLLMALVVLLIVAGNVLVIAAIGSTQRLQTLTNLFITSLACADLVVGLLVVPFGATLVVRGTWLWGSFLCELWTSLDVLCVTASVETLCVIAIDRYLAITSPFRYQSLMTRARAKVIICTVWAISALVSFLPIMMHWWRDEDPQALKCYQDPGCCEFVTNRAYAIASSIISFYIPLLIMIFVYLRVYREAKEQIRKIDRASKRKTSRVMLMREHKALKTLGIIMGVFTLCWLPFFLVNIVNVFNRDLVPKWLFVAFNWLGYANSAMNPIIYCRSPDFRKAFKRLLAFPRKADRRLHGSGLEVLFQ
T2 sequence (P07700 other isoform, or with tags, fused parts or gaps, stated change not applied): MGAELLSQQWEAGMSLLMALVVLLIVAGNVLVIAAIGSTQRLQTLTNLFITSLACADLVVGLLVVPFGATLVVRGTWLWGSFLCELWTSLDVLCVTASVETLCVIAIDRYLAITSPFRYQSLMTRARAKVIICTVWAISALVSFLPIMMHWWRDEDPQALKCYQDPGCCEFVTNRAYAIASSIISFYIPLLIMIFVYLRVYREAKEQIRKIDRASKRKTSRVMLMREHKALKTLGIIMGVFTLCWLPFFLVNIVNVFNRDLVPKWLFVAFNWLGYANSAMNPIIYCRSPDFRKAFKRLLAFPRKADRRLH

| Binder | Ka [2] | also measured |
| --- | --- | --- |
| mini-Go truncated by its last five residues (domain or fragment, mGo (Dm6) without its last five residues GCGLY; also called mGo_Δ5; source: E. coli, purified (same protocol as the mGα proteins); not shown: His tag, N-terminal, cleaved) GIEKNLKEDGISAAKDVKLLLLGADNSGKSTIVKQMKIIHGGSGGSGGTTGIVETHFTFKNLHFRLFDVGGQRSERKKWIHCFEDVTAIIFCVDLSDYNRMHESLMDFDSICNNKFFIDTSIILFLNKKDLFGEKIKKSPLTICFPEYTGPNTYEDAAAYIQAQFESKNRSPNKEIYCHMTCATDTNNAQVIFDAVTDIIIANNLR | 4.17e+06 M⁻¹ | Ka [1]: 3.57e+06 M⁻¹ |
| nanobody 80 (VHH, nanobody 80; also called Nb80; NB80; not shown: His6, C-terminal, kept) VHH: QVQLQESGGGLVQAGGSLRLSCAASGSIFSINTMGWYRQAPGKQRELVAAIHSGGSTNYANSVKGRFTISRDNAANTVYLQMNSLKPEDTAVYYCNVKDYGAVLYEYDYWGQGTQVTVSS | 4.76e+06 M⁻¹ | IC50 [3]: 4610 nM |
| nanobody 80 (VHH, also called Nb80; a Gs mimetic nanobody; source: purified) VHH: QVQLQESGGGLVQAGGSLRLSCAASGSIFSINTMGWYRQAPGKQRELVAAIHSGGSTNYANSVKGRFTISRDNAANTVYLQMNSLKPEDTAVYYCNVKDYGAVLYEYDYWGQGTQVTVSS | – | Kd [4]: 210 nM; Ki [5]: 1570 ± 240 nM |
| mini-Gq (domain or fragment, engineered from mGs (Dm5) by nine mutations on the α5-helix that correspond to residues of Gq; only residues of the α5-helix are those of Gq; also called mGq; source: E. coli, purified (Ni Sepharose, TEV cleavage, reverse Ni-NTA, gel filtration); not shown: His tag, N-terminal, cleaved) GIEKQLQKDKQVYRATHRLLLLGADNSGKSTIVKQMRILHGGSGGSGGTSGIFETKFQVDKVNFHMFDVGGQRDERRKWIQCFNDVTAIIFVVDSSDYNRLQEALNDFKSIWNNRWLRTISVILFLNKQDLLAEKVLAGKSKIEDYFPEFARYTTPEDATPEPGEDPRVTRAKYFIRDEFLRISTASGDGRHYCYPHFTCAVDTENARRIFNDCKDIILQMNLREYNLV | 810000 M⁻¹ | – |
| mini-Gi (domain or fragment, engineered from mGs (Dm5) by seven mutations on the α5-helix that correspond to residues of Gi; only residues of the α5-helix are those of Gi; also called mGi; source: E. coli, purified (Ni Sepharose, TEV cleavage, reverse Ni-NTA, gel filtration); not shown: His tag, N-terminal, cleaved) GIEKQLQKDKQVYRATHRLLLLGADNSGKSTIVKQMRILHGGSGGSGGTSGIFETKFQVDKVNFHMFDVGGQRDERRKWIQCFNDVTAIIFVVDSSDYNRLQEALNDFKSIWNNRWLRTISVILFLNKQDLLAEKVLAGKSKIEDYFPEFARYTTPEDATPEPGEDPRVTRAKYFIRDEFLRISTASGDGRHYCYPHFTCAVDTENARRIFNDVTDIIIKMNLRDCGLF | 620000 M⁻¹ | – |
| mini-Gs (domain or fragment, thermostabilized truncated Gαs with the GTPase domain, lacking the α-helical domain; also called mGs; source: E. coli, purified (Ni Sepharose, TEV cleavage, reverse Ni-NTA, gel filtration); not shown: His tag, N-terminal, cleaved) GIEKQLQKDKQVYRATHRLLLLGADNSGKSTIVKQMRILHGGSGGSGGTSGIFETKFQVDKVNFHMFDVGGQRDERRKWIQCFNDVTAIIFVVDSSDYNRLQEALNDFKSIWNNRWLRTISVILFLNKQDLLAEKVLAGKSKIEDYFPEFARYTTPEDATPEPGEDPRVTRAKYFIRDEFLRISTASGDGRHYCYPHFTCAVDTENARRIFNDCRDIIQRMHLRQYELL | 2.86e+06 M⁻¹ | – |
| mini-Go (domain or fragment, thermostabilized truncated form of the Gαo subunit with the GTPase domain, lacking the α-helical domain; also called mGo; source: E. coli, purified (Ni Sepharose, TEV cleavage, reverse Ni-NTA, gel filtration); not shown: His tag, N-terminal, cleaved) GIEKNLKEDGISAAKDVKLLLLGADNSGKSTIVKQMKIIHGGSGGSGGTTGIVETHFTFKNLHFRLFDVGGQRSERKKWIHCFEDVTAIIFCVDLSDYNRMHESLMDFDSICNNKFFIDTSIILFLNKKDLFGEKIKKSPLTICFPEYTGPNTYEDAAAYIQAQFESKNRSPNKEIYCHMTCATDTNNAQVIFDAVTDIIIANNLRGCGLY | 4e+06 M⁻¹ | Ka [1]: 4e+06 M⁻¹; EC50 [6]: 1580 nM |
